Measurements taken from patent publication US10149922B1, “Engineered collagen matrices for myocardial therapy” (The Board of Trustees of the Leland Stanford Junior …, priority 2012, dated 2018).

B1: Fstl1: Secreted glycoprotein encoded by the FSTL1 gene (SEQ ID NO: 1, UniProt Q12841); recombinant protein purchased from ADIPO BIOSCIENCE (protein, listed as Homo sapiens)
chain: MWKRWLALALALVAVAWVRAEEELRSKSKICANVFCGAGRECAVTEKGEPTCLCIEQCKPHKRPVCGSNGKTYLNHCELHRDACLTGSKIQVDYDGHCKEKKSVSPSASPVVCYQSNRDELRRRIIQWLEAEIIPDGWFSKGSNYSEILDKYFKNFDNGDSRLDSSEFLKFVEQNETAINITTYPDQENNKLLRGLCVDALIELSDENADWKLSFQEFLKCLNPSFNPPEKKCALEDETYADGAETEVDCNRCVCACGNWVCTAMTCDGKNQKGAQTQTEEEMTRYVQELQKHQETAEKTKRVSTKEI

Columns and labels:
[1] = system: FSTL1-induced proliferation of immature cardiomyocytes; assay: Screen of signal transduction inhibitors on FSTL1-induced proliferation; assay type: cell-based; conditions: EMD StemSelect compound library
Description: (§1) Experiments were conducted to analyze the proliferative response of early cardiomyocytes to FSTL1. 7 days following FSTL1 treatment, we observed that a remarkable 50% of the differentially expressed transcripts are known targets of the JAK/STAT and interferon related (IFR) pathways.

[2] = system: mESC-derived immature cardiomyocytes (mCM-d2); assay: Number of α-actinin+ cardiomyocytes in mCM-d2 cultures; assay type: cell-based, mouse; conditions: 10 ng/ml, eight days of treatment
Description: (§2) H2B-mCherry EMCs were maintained in DMEM with 10% FBS and antibiotics/antimycotic. Myh6-Puro^r;Rex-Blast^r mESCs were generated by Lentiviral transduction and Blasticidin selection, and then cultured. For cardiac differentiation, ESCs were cultured in Iscove's Modified Dulbecco Media (IMDM) supplemented with 10% FBS, 2 mM glutamine, 4.5×10^−4 M monothioglycerol, 0.5 mM ascorbic acid, 200 ug/mL transferrin (Roche), 5% protein-free hybridoma media (PFHM-II, Invitrogen) and antibiotics/antimycotic and differentiated as either embryoid bodies (EBs) formation or monolayer. Puromycin was added at differentiation day 10 for two days to enrich cardiomyocyte. The cells were then trypsinized and plated as monolayer cardiomyocytes. Conditioned media were collected after 2 days culturing of confluent EMC cells and passed through 0.22 um filters (Millipore). Control conditioned media were prepared the same way without EMC cells. Recombinant Fstl1 was purchased from ADIPO BIOSCIENCE.
We utilized an epicardial/mesothelial cell line (EMC) to investigate the interaction between epicardium and myocardium.
We applied 10 ng/ml purified hFstl1 onto the mCM-d2 system of ESC-derived early cardiomyocytes, similarly to the coculture and conditioned media experiments described in FIG. 2.

[3] = system: mESC-derived immature cardiomyocytes (mCM-d2); assay: Q-RT-PCR of cardiac-specific markers in mCM-d2; assay type: cell-based, mouse; conditions: 10 ng/ml, eight days of treatment
Description: as §2
Total RNA was extracted with TRIzol (Invitrogen) and reverse transcribed to cDNA with QuantiTect Reverse Transcription Kit (Qiagen) according to the manufacturer's instructions. cDNA samples synthesized from 100 ng of total RNA were subjected to RT-QPCR with LightCycler 480 SYBR Green I Master kit (Roche) performed with LightCycler 480 Real-Time PCR System (Roche).

[4] = system: mESC-derived immature cardiomyocytes (mCM-d2); assay: Kinetic Image Cytometry of rhythmic calcium transients in mCM-d2; assay type: cell-based, mouse; conditions: 10 ng/ml, eight days of treatment, mCM-d2, KIC analysis
Description: as §2
Kinetic Image Cytometer from Vala was used as instructed to record intracellular calcium transient with Fluo4 NW calcium indicator (Life Science). Data was processed using Cyteseer (Vala).

[5] = system: mCM-d2; assay: phospho-Histone3 proliferation in mCM-d2; assay type: cell-based, mouse; conditions: mCM-d2 treated for 48 hrs
[6] = system: Neonate Rat Ventricular Cardiomyocytes (NRVC); assay: Cell cycle profile of neonate rat ventricular cardiomyocytes (flow cytometry); assay type: cell-based; conditions: NRVC treated for 24 hours
Description: Ventricular cardiomyocytes were isolated with neonatal rat cardiomyocyte isolation kit (Cellutron) and cultured at 37° C. with 5% CO2. In brief, ventricles were dissected from 1-2-d-old Hsd:SD rats (Sprage Dawley), then digested five times for 15 min each with the enzyme cocktail at 37° C. Cells were pooled, preplated for 90 min on an uncoated dish to remove fibroblasts, and plated on 1% gelatin-coated cell culture plastic dishes in high-serum media (DME/F12 [1:1], 0.2% BSA, 3 mM sodium-pyruvate, 0.1 mM ascorbic acid, 4 mg/liter transferrin, 2 mM L-glutamine, and 5 mg/liter ciprofloxacin supplemented with 10% horse serum and 5% FCS) at 3×10^5 cells/cm2. After 24 h, media was changed to low-serum medium (same but with 0.25% FCS) and cultured until use.
The cell cycle profile of cardiac cells was analyzed as described. In brief, cells were fixed for 1 h at 4° C. with 0.25% PFA and then permeabilized for 15 min at 37° C. with 0.2% Tween 20 before incubation with α-actinin and secondary antibodies (Alexa 488—conjugated anti-mouse Ig) diluted 1:100 in FACS buffer (PBS with 1% goat serum and 0.1% NaN3). Cells were then stained with 10 μg/ml propidium iodide in FACS buffer supplemented with 500 μg/ml of RNAase A. Flow cytometry was performed on BD FACSCanto. FlowJo and ModFit software were used to analyze the results.

[7] = system: early cardiomyocytes; assay: Whole transcriptome profiling of early cardiomyocytes after FSTL1 treatment; assay type: cell-based; conditions: 7 days following FSTL1 treatment
Description: In one approach, whole transcriptome profiling after long and short term treatment is used. Transcriptome profiling is a common approach to gain insight into signaling pathways through the analysis of pathway selective gene expression. Responsive cells selected in the previous experiments are incubated with FSTL1 for 24 hours (short-term) or 7 day (long-term). Transcripts are profiled using microarrays (Affymetrix). Candidate factors are then validated functionally using small molecule inhibitors (if available) and/or siRNA.
as §1

[8] = system: mouse MI model; assay: Route of FSTL1 delivery in the mouse MI model; assay type: in vivo; conditions: compared to epicardial-localized delivery
Source text: Key variables, including time of delivery and the effectiveness following reperfusion. A second critical issue concerns the localized site of FSTL1 delivery. Systemic delivery was not effective in the mouse MI model, compared to epicardial-localized delivery. However, the present the epicardial biomaterial patch itself may provide an effective physical support that could synergize with a systemic FSTL1 delivery. FSTL1 must be delivered epicardial to be effective, and may done by impregnated into the collagen of the patch.

| Molecule | effect on FSTL1-induced proliferation [1] | increase in the number of cardiomyocytes [2] [fold] | increase in mRNA content of contractile proteins (including Myh6, Mlc2v, and Mlc2a) [3] | increase in the number of cardiomyocytes displaying rhythmic calcium transient [4] | phospho-Histone3+ cells [5] | percentage of cells in S/G2/M phase [6] | differentially expressed transcripts that are known targets of the JAK/STAT and interferon related (IFR) pathways [7] [%] | efficacy of systemic delivery [8] |
| --- | --- | --- | --- | --- | --- | --- | --- | --- |
| C[C@H](NC(=O)/C(C#N)=C/c1cccc(Br)n1)c1ccccc1 [WP1066] | blocked | – | – | – | – | – | – | – |
| B1 | – | 4 | 2-3 folds | 7-8 folds | significantly more | significantly increased | 50 | not effective |
